# Measurements as given in patent US20150291967.
# Key:
# Assay in all cases: cell_activity
# [1] = test system: TALEN ALS2_T02 right monomer (synthetic construct)
# [2] = test system: TALEN ALS2_T01 left monomer (synthetic construct)
# [3] = test system: TALEN ALS1_T02 right monomer (synthetic construct)
# [4] = test system: TALEN ALS2_T01 right monomer (synthetic construct)
# [5] = test system: TALEN ALS2_T02 left monomer (synthetic construct)
# [6] = test system: TALEN ALS1_T02 left monomer (synthetic construct)
# [7] = test system: TALEN ALS1_T01 left monomer (synthetic construct); settings: yeast beta-galactosidase reporter, pair with P2, 37 C (0.83 at 30 C)
# [8] = test system: TALEN ALS1_T01 right monomer (synthetic construct); settings: yeast beta-galactosidase reporter, pair with P1, 37 C (0.83 at 30 C)
sequence,measurement,setting,value
CTGTCTCCTATTTCCTA (double strand) [ALS2_T02 right half-site (top strand)],activity,"[1]; endogenous site, N. benthamiana protoplasts, pair with P7, control 0.10%",66.9 % NHEJ
same,activity (relative to I-SceI),"[1]; yeast beta-galactosidase reporter, pair with P7, 37 C (0.9 at 30 C)",1
TAGCTTGTTCCACATTT (double strand) [ALS2_T01 left half-site],activity,"[2]; endogenous site, N. benthamiana protoplasts, pair with P6, control 0.25%",74 % NHEJ
same,activity (relative to I-SceI),"[2]; yeast beta-galactosidase reporter, pair with P6, 37 C (0.9 at 30 C)",1
TATAAGTTGATTCTTAA (double strand) [ALS1_T02 right half-site (top strand)],activity,"[3]; endogenous site, N. benthamiana protoplasts, pair with P3, control 0.55%",4.9 % NHEJ
same,activity (relative to I-SceI),"[3]; yeast beta-galactosidase reporter, pair with P3, 37 C (0.90 at 30 C)",0.95
TGTCATGCTGGGTCAGA (double strand) [ALS2_T01 right half-site (top strand)],activity,"[4]; endogenous site, N. benthamiana protoplasts, pair with P5, control 0.25%",74 % NHEJ
same,activity (relative to I-SceI),"[4]; yeast beta-galactosidase reporter, pair with P5, 37 C (0.9 at 30 C)",1
TTCTCTCGAGTCCTAGG (double strand) [ALS2_T02 left half-site],activity,"[5]; endogenous site, N. benthamiana protoplasts, pair with P8, control 0.10%",66.9 % NHEJ
same,activity (relative to I-SceI),"[5]; yeast beta-galactosidase reporter, pair with P8, 37 C (0.9 at 30 C)",1
TTGGACTTGTATGGGTT (double strand) [ALS1_T02 left half-site],activity,"[6]; endogenous site, N. benthamiana protoplasts, pair with P4, control 0.55%",4.9 % NHEJ
same,activity (relative to I-SceI),"[6]; yeast beta-galactosidase reporter, pair with P4, 37 C (0.90 at 30 C)",0.95
TTTAGTGCGATAAAGTT (double strand) [ALS1_T01 left half-site],activity (relative to I-SceI),[7],0.93
TTTTATTTCGTAAGCTA (double strand) [ALS1_T01 right half-site (top strand)],activity (relative to I-SceI),[8],0.93
